Publication PMC10686051 (Nature structural & molecular biology, 2023)

Target: the molecule itself
Experiment: MST

B1: MRE11 structured-domain (1–411 aa) (domain or fragment, UniProt P49959 1-411, looked up)
chain: MSTADALDDENTFKILVATDIHLGFMEKDAVRGNDTFVTLDEILRLAQENEVDFILLGGDLFHENKPSRKTLHTCLELLRKYCMGDRPVQFEILSDQSVNFGFSKFPWVNYQDGNLNISIPVFSIHGNHDDPTGADALCALDILSCAGFVNHFGRSMSVEKIDISPVLLQKGSTKIALYGLGSIPDERLYRMFVNKKVTMLRPKEDENSWFNLFVIHQNRSKHGSTNFIPEQFLDDFIDLVIWGHEHECKIAPTKNEQQLFYISQPGSSVVTSLSPGEAVKKHVGLLRIKGRKMNMHKIPLHTVRQFFMEDIVLANHPDIFNPDNPKVTQAIQSFCLEKIEEMLENAERERLGNSHQPEKPLVRLRVDYSGGFEPFSVLRFSQKFVDRVANPKDIIHFFRHREQKEKTGEE
modifications: amine-reactive AlexaFluor-647 dye on the labeled copy; the titrated copy is unlabeled
Which Kd does the source give for B1 here?
Its Kd is 370 ± 80 nM.
